According to article PMC8718552 (Frontiers in Immunology, 2021):

Tests used:
[1] = molecular target: CD14 on human CD14+ monocytes (UniProt P08571); assay: flow cytometry on cells
[2] = molecular target: SARS-CoV-2 ORF8 (S84) (71–76) A mutant (SARS-CoV-2) (UniProt P0DTC8); assay: SEC
[3] = molecular target: SARS-CoV-2 ORF8 (S84) Ig-like domain (SARS-CoV-2) (UniProt P0DTC8); assay: SEC
[4] = molecular target: SARS-CoV-2 ORF8 (S84) Ig-like domain (SARS-CoV-2) (UniProt P0DTC8); assay: non-reducing SDS-PAGE
[5] = molecular target: the molecule itself; assay: non-reducing SDS-PAGE

CD14 on human CD14+ monocytes, sequence (P08571 20-345): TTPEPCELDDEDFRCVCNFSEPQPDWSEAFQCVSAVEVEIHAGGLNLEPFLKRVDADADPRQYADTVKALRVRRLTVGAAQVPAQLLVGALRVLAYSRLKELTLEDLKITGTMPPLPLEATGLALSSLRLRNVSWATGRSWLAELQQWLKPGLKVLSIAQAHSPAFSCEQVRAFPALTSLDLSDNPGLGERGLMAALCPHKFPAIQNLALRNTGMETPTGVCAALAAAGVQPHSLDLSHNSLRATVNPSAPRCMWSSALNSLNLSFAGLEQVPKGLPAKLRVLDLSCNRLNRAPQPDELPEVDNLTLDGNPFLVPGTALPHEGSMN

For “SARS-CoV-2 ORF8 (L84) Ig-like domain (from UniProt P0DTC8) L84S”, which response ([1]; parent: 48.7) is on record?
Its response is 37.7%.

And the response ([1]; parent: 51.8)?
Its response is 32.7%.

And the response ([1]; parent: 54.1)?
The response was 32.7%.

What about the response ([1]; parent: 68.0) of the same molecule?
Its response is 47.9%.

What about the response ([1]; parent: est. 56, read off a plot) of the same molecule?
Its response is 38%.

For “SARS-CoV-2 ORF8 (S84) (71–76) A mutant (from UniProt P0DTC8 16-121) (domain or fragment)”, which stoichiometry N [2] is on record?
The stoichiometry N was 2.

For “SARS-CoV-2 ORF8 (S84) Ig-like domain (from UniProt P0DTC8 16-121) (domain or fragment)”, which stoichiometry N [3] is on record?
Its stoichiometry N is 2.

What about the stoichiometry N [4] of the same molecule?
Its stoichiometry N is 2.

B1: SARS-CoV-2 ORF8 (L84) (71–76) A (domain or fragment)
chain: FHQECSLQSCTQHQPYVVDDPCPIHFYSKWYIRVGARKSAPLIELCVDEAGSKSPAAAAAAGNYTVSCLPFTINCQEPKLGSLVVRCSFYEDFLEYHDVRVVLDFI
Does B1 bind [5]?
Result: binds
